Test results: patent US20220242958A1, “BISPECIFIC NANOBODIES” (Ablynx N.V., priority 2013, published 2022)
Like-named read-outs stand apart in the source and are kept apart here.

Key:
[1] = target: T1, CXCR4 on Caki-CXCR4 cells (Homo sapiens, UniProt P61073); experiment: Biotinylated SDF-1 displacement on Caki-CXCR4 cells (flow cytometry); format: binding; conditions: 30 nM biotinylated SDF-1; read-out: Ligand competition Biotin-SDF-1 IC50
T1 construct: expressed in transfected cells; host or cells: Caki-CXCR4
T1 sequence (P61073 whole entry): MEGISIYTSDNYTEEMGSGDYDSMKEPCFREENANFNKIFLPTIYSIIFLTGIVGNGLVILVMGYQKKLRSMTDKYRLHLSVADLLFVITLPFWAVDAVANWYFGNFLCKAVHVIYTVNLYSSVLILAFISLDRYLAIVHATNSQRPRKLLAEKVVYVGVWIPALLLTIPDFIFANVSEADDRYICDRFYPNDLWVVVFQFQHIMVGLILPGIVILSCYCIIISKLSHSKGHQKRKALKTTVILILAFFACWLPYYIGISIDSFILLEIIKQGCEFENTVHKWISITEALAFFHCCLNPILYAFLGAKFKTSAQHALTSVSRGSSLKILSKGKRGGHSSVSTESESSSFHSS
Description: CXCR4 Nanobodies were analysed for their ability to compete with the ligand CXCL12 (or SDF-1a) for receptor binding, by displacement of biotinylated SDF-1 on Caki-CXCR4 cells in flow cytometry. To this end serial dilutions of Nanobodies were incubated with 30 nM of biotinylated SDF-1 (R&D Systems Fluorokine kit) on cells, after which ligand binding was visualised using extravidin-PE. The biotin-SDF-1 competitor concentration used in this assay was below the EC50 value obtained in dose-titration, where IC50 values should reflect the Ki.

CXCR4 on MOLM-13 cells = target: T2, CXCR4 on MOLM-13 cells (Homo sapiens, UniProt P61073); experiment: CXCL12/SDF-1a induced chemotaxis of MOLM-13 cells; format: cell-based; conditions: average of 2-3 independent experiments; unit inferred; read-out: MOLM-13 IC50, inhibition of CXCL-12 induced chemotaxis
T2 construct: endogenous in cells; host or cells: MOLM-13
T2 sequence (P61073 whole entry): as above
Description: (§1) To verify if bispecific CXCR4-IL3Ra polypeptides show increased affinity and potency on cells expressing both receptors, a CXCR4-dependent functional assay was carried out. To this end SDF-1a dependent chemotaxis on Jurkat E6-1 (CXCR4+/IL3Ra−), and MOLM-13 cells (CXCR4+/IL3Ra+) was performed for direct comparison of cells expressing both or only one receptor. Since the functional blockade is only mediated via CXCR4, avidity by the simultaneous binding of the anti-IL3Ra Nanobody® is expected to translate into increased potency in inhibition of chemotaxis.
Bispecific polypeptides were analyzed for inhibition of CXCL12-induced chemotaxis on cells endogenously expressing CXCR4. As chemoattractant a concentration of 750 pM SDF-1a was used on 100,000 cells/well for the Jurkat cell line, and 500,000 cells/well for the MOLM-13 cell line. On each plate the corresponding monovalent CXCR4 Nanobody was included as reference, allowing to calculate the fold increase of the bispecific within each plate. As additional control 1:1 mixtures of monovalent Nanobodies were included. In Table 9 the respective IC50 values are shown (average of n=3 experiments). […]
Dose-dependent inhibition of CXCL12-induced chemotaxis by the panel of bispecific CD4-CXCR4 Nanobodies was determined on Jurkat (CXCR4+/CD4 low), and Molm-13 cells (CXCR4++/CD4++). […]

[2] = target: T3, CXCR4 on Jurkat E6-1 cells (Homo sapiens, UniProt P61073); experiment: CXCL12/SDF-1a induced chemotaxis of Jurkat E6-1 cells; format: cell-based
T3 construct: endogenous in cells; host or cells: Jurkat E6-1
T3 sequence (P61073 whole entry): as above
Description: as §1
Bispecific polypeptides were analyzed for inhibition of CXCL12-induced chemotaxis on cells endogenously expressing CXCR4. As chemoattractant a concentration of 750 pM SDF-1a was used on 100,000 cells/well for the Jurkat cell line, and 500,000 cells/well for the MOLM-13 cell line. On each plate the corresponding monovalent CXCR4 Nanobody was included as reference, allowing to calculate the fold increase of the bispecific within each plate. As additional control 1:1 mixtures of monovalent Nanobodies were included. In Table 9 the respective IC50 values are shown (average of n=3 experiments).
To verify if bispecific CXCR4-IL-3Ra polypeptides show increased affinity and potency on cells expressing both receptors, a CXCR4-dependent functional assay was done. Since MOLM-13 cells express CD4 in conjunction with CXCR4 and CD123, the same experimental set-up was used as described for the CXCR4-CD123 bispecific Nanobodies (see: Example 1.5.5).
Dose-dependent inhibition of CXCL12-induced chemotaxis by the panel of bispecific CD4-CXCR4 Nanobodies was determined on Jurkat (CXCR4+/CD4 low), and Molm-13 cells (CXCR4++/CD4++). As reference anti-CXCR4 antibody 12G5 was included on each plate. […] Remarkably, bispecific constructs in the inverse orientation were able to block CXCR4 function, despite their reduced affinity for CXCR4 due to the unfavourable position, although the blockade was partial. The much larger potency increases observed with Nanobodies targeting the CD4 and CXCR4 combination is most likely related to the higher relative expression levels of CD4 compared to CD123 on the Molm-13 cells.

CXCR4 on Jurkat cells = target: T4, CXCR4 on Jurkat cells (Homo sapiens, UniProt P61073); experiment: Binding of CXCR4 Nanobodies to Jurkat cells
T4 construct: endogenous in cells; host or cells: Jurkat E6-1
T4 sequence (P61073 whole entry): as above

CXCR4-VLP = target: T5, CXCR4-VLP (Homo sapiens, UniProt P61073); experiment: ELISA binding to CXCR4 viral lipoparticles (VLP)
T5 construct: purchased Integral Molecular (printed 'Molecular Integral')
T5 sequence (P61073 whole entry): as above
Description: Binding of CXCR4 Nanobodies to CXCR4-expressing cells was assessed on different cell lines, to assess EC50 values. For CXCR4 the membrane insertion is needed for proper conformation and functionality of the receptor. Therefore CXCR4 Nanobodies were characterized for binding to viral lipoparticles (VLP; Molecular Integral) expressing CXCR4 versus control lipoparticles in ELISA. To this end VLPs were coated at 0.5 U/well overnight at 4° C. using anti-myc antibodies for detection. Over all different binding assays, Nanobody 14D09 always exerted lower binding affinity than 14A02, as indicated by a shift in EC50 values. The results are depicted in FIG. 1.3.
To assess if the formatting into bispecific constructs affected the target binding capacity of the individual Nanobodies, the bispecific Nanobodies were analysed for binding to recombinant IL-3Ra (R&D Systems) in ELISA and to CXCR4 viral lipoparticles (Integral Molecular). […] However, CXCR4 binding of constructs with either CXCR4#1 or CXCR4#2 is retained only in one orientation, when the CXCR4 Nanobody is at the N-terminal position. The bispecific constructs where the CXCR4 Nanobody is positioned C-terminal show a 50-100-fold loss in binding to CXCR4-VLPs.

[3] = target: T1, CXCR4 on Caki-CXCR4 cells; experiment: Binding of CXCR4 Nanobodies to Caki-CXCR4 cells

B1: CXCR4#1: anti-CXCR4 Nanobody, SEQ ID NO: 1 (protein)
VHH: EVQLVESGGGLVQAGGSLRLSCVASGISSSKRNMGWYRQAPGKQRESVATISSGGNKDYTDAVKDRFTISRDTTKNTVYLQMNSLKPEDTAVYYCKIEAGTGWATRRGYTYWGQGTQVTVSS
IC50 [1]: 18.4 nM | IC50 (CXCR4 on MOLM-13 cells): 8.62 nM | IC50 ([2]; average of 2-3 independent experiments, unit inferred, read-out: Jurkat E6-1 IC50, inhibition of CXCL-12 induced chemotaxis): 10.4 nM | IC50 ([2]; cell line not stated, read-out: IC50 of monovalent CXCR4 Nanobody (chemotaxis potency)): 10 nM | IC50 ([2]; monovalent CXCR4 Nanobodies, Table 4, read-out: Chemotaxis Jurkat IC50): 11 nM | EC50 (CXCR4 on Jurkat cells): 11 nM | EC50 (CXCR4-VLP): 7.28 nM | EC50 [3]: 9.9 nM
